This experiment concerns the target T1, wild type bacteriophage T7 (bacteriophage T7, UniProt P19726 1-345; P19727 1-398).
T1 construct: Whole phage particle without a homing peptide, used as the control; also called WT T7; wild type T7
T1 sequence 1: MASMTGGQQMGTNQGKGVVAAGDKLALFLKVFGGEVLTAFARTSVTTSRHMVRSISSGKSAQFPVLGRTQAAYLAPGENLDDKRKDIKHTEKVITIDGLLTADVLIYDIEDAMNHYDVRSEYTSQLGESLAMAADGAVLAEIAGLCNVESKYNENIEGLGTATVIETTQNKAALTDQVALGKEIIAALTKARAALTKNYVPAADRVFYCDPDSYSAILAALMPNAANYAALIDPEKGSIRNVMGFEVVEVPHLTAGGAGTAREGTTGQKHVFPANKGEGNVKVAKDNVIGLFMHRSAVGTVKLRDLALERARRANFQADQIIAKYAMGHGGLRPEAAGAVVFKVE
T1 sequence 2: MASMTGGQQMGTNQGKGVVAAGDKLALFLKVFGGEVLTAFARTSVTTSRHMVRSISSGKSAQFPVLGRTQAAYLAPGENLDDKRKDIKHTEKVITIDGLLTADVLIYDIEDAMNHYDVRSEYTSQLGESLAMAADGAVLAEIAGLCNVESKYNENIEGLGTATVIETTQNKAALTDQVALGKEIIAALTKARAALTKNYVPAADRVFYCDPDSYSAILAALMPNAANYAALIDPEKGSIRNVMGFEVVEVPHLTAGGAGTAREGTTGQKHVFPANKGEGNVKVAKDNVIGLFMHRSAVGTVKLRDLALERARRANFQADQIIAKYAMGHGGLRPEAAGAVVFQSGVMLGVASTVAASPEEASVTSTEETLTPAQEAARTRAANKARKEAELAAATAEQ
Description: confocal fluorescence microscopy of B16F10 cells, anti-T7 antibody staining after washing.

B1: grp78 on B16F10 mouse melanoma cells (receptor)
chain: not shown
notes: whole, on cells; The assay was done on whole B16F10 cells; also called receptor for pep42; B16F10 cells
B1: the binding result is reported as “no binding (tested: 1×10^7 PFU of phages)”.

The values above are taken from patent US20210009963A1 (LYSENTECH, published 2021).
